Results from US20110243929A1 (MEDLMMUNE, published 2011).
“And” between values parts separate entries of the source, which are not always exact repeats. Equal entries are not always repeated. Values belong to the binder of their own block, whether it stands above or below them.

Experiments:
[1] = target: T1, human ICOS (human, UniProt Q9Y6W8 21-199); assay: cell-based or functional assay
T1 sequence: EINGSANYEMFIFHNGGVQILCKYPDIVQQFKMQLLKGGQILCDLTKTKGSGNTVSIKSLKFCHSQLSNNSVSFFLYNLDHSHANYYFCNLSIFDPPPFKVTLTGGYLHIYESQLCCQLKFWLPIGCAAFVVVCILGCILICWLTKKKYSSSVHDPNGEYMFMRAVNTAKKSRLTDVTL

[2] = target: T2, cynomolgus ICOS (cynomolgus, UniProt A0A2K5TQR6 21-168); assay: cell-based or functional assay
T2 sequence: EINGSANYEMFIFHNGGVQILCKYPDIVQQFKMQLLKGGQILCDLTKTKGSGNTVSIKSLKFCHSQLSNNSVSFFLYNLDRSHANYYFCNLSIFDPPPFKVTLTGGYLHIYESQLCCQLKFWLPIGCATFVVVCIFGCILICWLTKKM

[3] = target: T2, cynomolgus ICOS; assay: cell-based or functional assay; remark: listed apart in the source
[4] = target: T2, cynomolgus ICOS; assay: cell-based or functional assay; remark: listed apart in the source
[5] = target: T3, Human FcγRIIa (human, UniProt P12318); assay: BIAcore 3000; IgG immobilized on CM5 chip, soluble FcγR extracellular domain injected; equilibrium 1:1 binding isotherm
T3 construct: extracellular domain
T3 sequence (extracellular domain, looked up): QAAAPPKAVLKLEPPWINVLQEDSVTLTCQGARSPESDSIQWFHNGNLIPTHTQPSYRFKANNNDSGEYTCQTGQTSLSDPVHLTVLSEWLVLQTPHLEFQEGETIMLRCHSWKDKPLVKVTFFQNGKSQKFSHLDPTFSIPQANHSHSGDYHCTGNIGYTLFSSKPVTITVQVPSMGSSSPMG
Method: (§1) The measurements are performed according to standard protocols. Briefly, all IgGs are immobilized onto separate flow cells of two CM5 sensor chips using standard amino coupling chemistry as recommended by the manufacturer. […] Stock solutions of the recombinantly expressed extracellular domains of all FcγRs at either 4000 or 16000 nM are prepared and then serially diluted down to the desired concentrations using the instrument buffer (50 mM HBS buffer containing 0.01 M HEPES, pH 7.4, 0.15 M NaCl, 3 mM EDTA and 0.005% P-20). Duplicate injections of each concentration of FcγR ared then injected over all of the IgG surfaces at a flow rate of 5 μL/min. Binding data are collected for approximately […], followed by a 30 sec. pulse of 5 mM HCl between injections to regenerate the IgG surfaces. Several buffer injections are also interspersed throughout the injection series. One of these buffer injections is used along with the reference cell data to correct the raw data sets. After all binding data is collected, individual data sets are averaged for each y concentration, then fit to a 1:1 binding isotherm from which the equilibrium binding constants, KD, are derived. Analysis is carried out using the BIAevaluation software.

[6] = target: T4, Cynomolgus FcγRIIa (Macaca fascicularis, UniProt A0A140HDN0); assay: as above
T4 construct: extracellular domain
T4 sequence (extracellular domain): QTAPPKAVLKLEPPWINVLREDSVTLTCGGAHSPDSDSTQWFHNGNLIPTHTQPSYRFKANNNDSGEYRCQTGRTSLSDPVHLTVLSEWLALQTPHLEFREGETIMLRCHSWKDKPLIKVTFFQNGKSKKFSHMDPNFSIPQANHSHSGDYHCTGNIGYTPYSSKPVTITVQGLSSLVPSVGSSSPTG
Method: as §1

[7] = target: T5, Human FcγRIIb (human, UniProt P31994); assay: as above
T5 construct: extracellular domain; Only the IC9G1-aFuc cell is filled
T5 sequence (extracellular domain, looked up): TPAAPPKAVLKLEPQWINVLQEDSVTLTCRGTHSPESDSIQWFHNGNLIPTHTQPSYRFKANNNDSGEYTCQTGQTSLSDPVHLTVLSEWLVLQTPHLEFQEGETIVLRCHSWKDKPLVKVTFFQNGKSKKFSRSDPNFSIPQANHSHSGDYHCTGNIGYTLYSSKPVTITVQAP
Method: as §1

[8] = target: T6, Cynomolgus FcγRIIb (Macaca fascicularis, UniProt A0A140HDP4); assay: as above
T6 construct: extracellular domain
T6 sequence (extracellular domain): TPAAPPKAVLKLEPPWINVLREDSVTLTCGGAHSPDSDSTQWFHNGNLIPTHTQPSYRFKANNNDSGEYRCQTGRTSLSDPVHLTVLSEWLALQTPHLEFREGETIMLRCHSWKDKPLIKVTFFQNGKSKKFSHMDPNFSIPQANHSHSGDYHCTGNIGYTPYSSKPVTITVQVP
Method: as §1

[9] = target: T7, cynomolgus FcγRIIIA, recombinantly expressed extracellular domain (cynomolgus, UniProt Q8SPW2 17-208); assay: as above
T7 construct: extracellular domain; also called cynomolgus FcgRIIIa
Method: as §1

T7 sequence (Q8SPW2 17-208): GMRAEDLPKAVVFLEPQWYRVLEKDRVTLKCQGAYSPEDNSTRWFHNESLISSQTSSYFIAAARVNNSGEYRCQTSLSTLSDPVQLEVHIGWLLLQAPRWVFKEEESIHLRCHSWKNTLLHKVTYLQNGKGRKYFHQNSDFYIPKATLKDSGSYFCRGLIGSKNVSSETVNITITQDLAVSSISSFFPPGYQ

EC50 of ADCC activity (isolated human NK effector cells, 2:1, overnight) [1]: 0.0082 nM
EC50 of ADCC activity (isolated human NK effector cells, 2:1, overnight) [2]: 0.0146 nM and 0.0171 nM
Kd [5]: 2010 nM
Kd [6]: 3140 nM
Kd [7]: 14000 nM
Kd [8]: 1950 nM
Kd [9]: 21 nM
B1: IC9G1-aFuc (afucosylated IC9G1 antibody composition) (antibody, human IgG1, kappa)
heavy: not shown
light: DIQMTQSPSSVSASVGDRVTITCRASQGISRLLAWYQQKPGKAPKLLIYVASSLQSGVPSRFSGSGSGTDFTLTISSLQPEDFATYYCQQANSFPWTFGQGTKVEIKRTVAAPSVFIFPPSDEQLKSGTASVVCLLNNFYPREAKVQWKVDNALQSGNSQESVTEQDSKDSTYSLSSTLTLSKADYEKHKVYACEVTHQGLSSPVTKSFNRGEC
modifications: chain 1 pos 305 (Asn297, EU numbering): complex N-glycoside-linked sugar chain without fucose on the reducing-end N-acetylglucosamine, written N
notes: Same polypeptides as IC9G1 (JMab-136 VH/VK, human IgHγ1 constant region, kappa); also called IG9G1-aFuc; ICG91-aFuc; copies: 2 + 2
EC50 of ADCC (% cytotoxicity; human NK effector cells, isolated cynomolgus splenic T cells as targets) [3]: 0.00205 µg/mL
EC50 of ADCC (% cytotoxicity; human NK effector cells, isolated cynomolgus mesenteric lymph node T cells as targets) [4]: 0.0024 µg/mL

EC50 of ADCC activity (isolated human NK effector cells, 2:1, overnight) [1]: 0.0604 nM
EC50 of ADCC activity (isolated human NK effector cells, 2:1, overnight) [2]: 0.236 nM and 0.198 nM
Kd [5]: 3310 nM
Kd [6]: 5280 nM
Kd [8]: 2370 nM
Kd [9]: 394 nM
B2: IC9G1 (anti ICOS antibody comprising JMab-136 VH and VL domains and the IgHγ1 constant region) (antibody, human IgG1, kappa)
heavy: not shown
light: B1 light
notes: The rest is a human IgHγ1 constant region (IgG1) and a human IgLK (kappa) constant region; copies: 2 + 2
EC50 of ADCC (% cytotoxicity; human NK effector cells, isolated cynomolgus splenic T cells as targets) [3]: 0.0331 µg/mL
EC50 of ADCC (% cytotoxicity; human NK effector cells, isolated cynomolgus mesenteric lymph node T cells as targets) [4]: 0.0278 µg/mL
